Results published in US20230220073A1 (UCL BUSINESS, published 2023).

B1: Clone Mu chimeric ROR1 antibody (antibody, V domains shown)
VH: QVQLQQSGAELVKPGSSVRISCKASGYTITSYDMHWIKQQPGNGLEGIGWIHPGNGKIKYNQKFNGKATLTVDKSSSTAYMQLSSLTSEDSAVYFCARGTTRVFPWFAYWGQGTLVTVSS
VL: QFTLTQPKSVSGSLRSTITIPCERSSGDIGDNYVSWYQQHLGRPPINVIYADDQRPSEVSDRFSGSIDSSSNSASLTITNLQMDDEADYFCQSFDSNFDIPVFGGGTKLTVL
B2: Clone F chimeric ROR1 antibody (antibody, V domains shown)
VH: EVQLVESGGGLVQPGRSLKLSCAASGFIFSEHNMAWVRQAPKKGLEWVATISDDGRNTYYRDSMRGRFTISRENARSTLYLQLDSLRSEDTATYYCASHRYNLFDSWGQGVMVTVSS
VL: DIQMTQSPSFLSASVGDRVTINCKASQNIDRYLNWYQQKLGEAPKRLLYNTNKLQTGIPSRFSGSGSATDFTLTISSLQPEDFATYFCLQYNSLPLTFGSGTKLEIK
B3: Clone V chimeric ROR1 antibody (antibody, V domains shown)
VH: EVQLVESGGGLVQPGRSLKLSCAASGFSFSNYGMHWIRQAPTKGLEWVASISPTGGNTYYRDSVKGRFTISRDNTKSTLYLQMDSLRSEDTATYYCATDDLYYSGPFAYWGQGTLVTVSS
VL: DIKMTQSPSFLSASVGDRVTINCKASQNITRFLNWYQQELGEAPTLLIYNTNNLQTGIPSRFSGSGSGTDFTLTISSLQPEDVATYFCLQHGSRPRTFGGGTKLELK
B4: Clone A chimeric ROR1 antibody (antibody, V domains shown)
VH: QVQLQQSGTELVKPASSVRISCKASGYTLTTNYMHWIRQQPGNGLEWIGWIYPGNGNTKFNHKFDGRTTLTADKSSSIVYMQLSSLTSEDSAVYFCARSDFDYWGQGVMVTVSS
VL: DIQMTQSPSSMSASLGDRVTFTCQASQDIGNNLIWFQQKPGKSPRPLMYFATSLANGVPSRFSGSRSGSDYSLTISSLESEDLADYHCLQYREYPLTFGSGTKLDLK
notes: also called SA1

Legend:
[1] = biological target: T1, ROR1 Ig-like domain alone, on transduced SUP-T1 cells (human, UniProt Q01973 30-147, limits assumed); test: flow cytometry, transduced SUP-T1 cells, anti-human Fc-Dylight647
T1 construct: domain: Ig-like; also called immunoglobulin domain
Experimental: (§1) FIG. 1A-FIG. 1C: Identification of ROR1 binding domain: FIG. 1A: SUP-T1 cells were transduced with retroviral vectors containing either the full extracellular portion of ROR1 or only one or two extracellular domains. Non-transduced SUP-T1 (SUP-T1 NT) cells served as negative control. FIG. 1B: All 12 chimeric antibodies and FIG. 1C all 10 positive clones in scFv format were incubated with SUP-T1 NT and the new stable cell lines at 4° C. for 30 min. Cells were washed and stained with a secondary antibody (anti-human Fc-Dylight647), which was used as negative control. eROR1=extracellular ROR1, Ig-like=Immunoglobulin-like domain, Fz=Frizzled domain, Kg=Kringle domain.

[2] = biological target: T2, ROR1 Frizzled domain alone, on transduced SUP-T1 cells (human, UniProt Q01973 165-299); test: as above
T2 construct: domain: Fz; also called Fz; ROR1-Fz domain
Experimental: as §1

[3] = biological target: T3, ROR1, full extracellular region, on transduced SUP-T1 cells (UniProt Q01973 30-406); test: as above
T3 construct: extracellular domain; also called eROR1; extracellular ROR1
Experimental: as §1

Kringle (Kg) = biological target: T4, Kringle (Kg) (human, UniProt Q01973); test: as above
T4 construct: also called ROR1 Kringle domain alone, on transduced SUP-T1 cells
Experimental: as §1

[4] = biological target: T5, ROR1 Ig-like+Frizzled (Fz) domains, on transduced SUP-T1 cells (UniProt Q01973 30-299, limits assumed); test: as above
T5 construct: domain: Ig-like+Frizzled (Fz); also called Ig-Fz protein
Experimental: as §1

Fz+Kg = biological target: T6, Fz+Kg (human, UniProt Q01973); test: as above
T6 construct: also called ROR1 Frizzled+Kringle domains, on transduced SUP-T1 cells
Experimental: as §1

[5] = biological target: T7, ROR1 Fz domain with Q(261)H and I(254)V, on transduced SUP-T1 cells (human, UniProt Q01973 165-299); test: flow cytometry on SUP-T1 cells transduced with mutated ROR1 Fz domain
T7 construct: domain: Fz

Q(261)H mutation = Q(261)H mutation (human, UniProt Q01973); test: flow cytometry, Q(261)H-transduced SUP-T1 cells (eGFP), DyLight647
Experimental: FIG. 6A-FIG. 6D: Epitope mapping of ROR1 clone F MAb. FIG. 6A-FIG. 6B: Reactivity of clone F with ROR1-derived overlapping peptides was analyzed by ELISA. Since no linear epitope was identified, FIG. 6C-FIG. 6D: amino acid substitution of non-conserved regions within the Fz domain was performed in ROR1-Fz transduced cell lines. Circles indicate essential amino acids for antibody binding. One out of three experiments is shown. Experiments were done in triplicates. Error bars represent SD.
(§2) Retroviral vectors were used for transducing SUP-T1 cells and transduction was tested by GFP expression using flow cytometry.

[6] = biological target: T3, ROR1, full extracellular region, on …; test: flow cytometry, ROR1-transduced cells, single staining; Q1 = ahFc+ only; amFc+ahFc alone Q1 0.060
From the text: FIG. 7A-FIG. 7C: Competition assay by flow cytometry. Clone A (SA1) in murine IgG2a, k (mSA1) along with other ROR1 MAbs in human IgG1, k-including previously published 4a5, D10 and R12 clones—were used for staining ROR1-transduced cells. MAb staining was done as FIG. 7A-FIG. 7B: single agents or FIG. 7C: in combination with clone A (mSA1). Anti-human IgG (450) and anti-mouse IgG (DyLight649) were used as secondary antibodies. Combined staining using clones F and mSA1 acted as negative control for overlapping epitopes.
In FIG. 7C, three different columns are presented. Dot plots on the first column correspond to ROR1 binding assessed when SUP-T1 ROR1 cells were stained with clone A (SA1) (mIgG) in the first instance. After a washing step, cells were stained with a competitor antibody (hIgG), followed by another washing step. Both antibodies were then detected by a third staining step using the appropriate secondary antibodies. In the second column, a similar approach was taken when staining these cells, except that this time it was the antibody in hIgG1, k format the one used for the first staining step, followed by clone A (SA1) staining. On the third column, both antibodies were used at the same time.

[7] = biological target: T8, Histidine-tagged ROR1 protein (extracellular region) (UniProt Q01973 30-406); test: SPR, Biacore X100; antibody captured by anti-human IgG1 on CM5 chip, His-tagged ROR1 extracellular portion injected at 1.5-100 nM
T8 construct: extracellular domain; also called extracellular portion of ROR1 bearing a Histidine tag; not shown: Histidine tag
Experimental: FIG. 3: KD determination by surface plasmon resonance. Sensorgrams obtained using a Biacore X100 instrument are shown. Briefly, ROR1 antibodies were immobilized using a CM5 chip and seven different concentrations of the Histidine-tagged ROR1 protein (extracellular region) were injected. Concentrations ranged from […].
We undertook surface plasmon resonance evaluation using a Biacore X100 instrument. ROR1 chimeric antibodies were immobilised using an anti-human IgG1 antibody capture kit and a CM5 sensor chip. Seven different concentrations, ranging from 1.5-100 nM, of the extracellular portion of ROR1 bearing a Histidine tag were then injected.

SKW 6.4 GFP = biological target: T9, SKW 6.4 GFP (human, UniProt Q01973); test: flow cytometry, SKW 6.4 GFP cells stained at 4 C, anti-human Fc-Dylight 647
T9 construct: on the cell surface; also called ROR1 endogenously expressed on SKW 6.4 cells
Experimental: FIG. 8A-FIG. 8C: Internalisation of ROR1 antibodies on SKW 6.4 GFP cells by flow cytometry. SKW 6.4 GFP cells were stained at 4° C. and either kept on ice (blue line) or incubated at 37° C. (yellow line) for 1 h. […] Clones A, F and Mu (purple circle) were selected for further investigation. Clones R12 and 4a5 (in black) served as negative and positive control, respectively. Anti-human Fc-Dylight 647 was used as secondary antibody and as staining control (red line). MFI=Median Fluorescence Intensity.
After 30 min, cells were washed with ice-cold PBS, and either left on ice or incubated at 37° C. for 1 h. Subsequent staining with an anti-human Fc-Dylight 647 was used to detect any primary antibody that had remained on the cell surface. Previously reported clones R12 and 4a5 were also included in this assay as negative and positive controls, respectively (FIG. 8).

CLL2 ROR1high = biological target: T10, CLL2 ROR1high (human, UniProt Q01973); test: flow cytometry, cells stained at 4 C, ahFc-DyLight647
T10 construct: on the cell surface; also called ROR1 on primary CLL cells with high ROR1
Experimental: FIG. 9A-FIG. 9C: Internalisation of ROR1 MAbs on SKW 6.4 GFP and CLL cells by flow cytometry. Cells were stained at 4° C. and either left on ice or incubated at 37° C. for 15 min, 1 h and 2 h. Cells were then analysed using an anti-human IgG as secondary antibody. FIG. 9A-FIG. 9B: Histograms and FIG. 9C: Trends over time showing the MFI reduction over time are presented. The % of MFI reduction was calculated as described in the Materials and Methods chapter. Phenylarsine oxide (PAO), an endocytosis inhibitor, acted as negative control (PAO-120).
To distinguish between dissociation and internalisation, SKW 6.4 cells were incubated on ice in the presence of our selected antibodies for 30 min. Cells were then washed with ice-cold PBS and either left on ice or incubated at 37° C. for 15 min, 1 h or 2 h. For the 2 h time point, a duplicate sample was incubated with PAO (10 μM). Immediately after incubation, all samples were washed with ice-cold PBS and stained with an anti-human Fc-Dylight 647 for 30 min. Cells were analysed by flow cytometry and MFI reduction was calculated.
Samples were processed as mentioned above and analysed by flow cytometry. […] This was even clearer on CLL cells, where virtually no internalisation of clone V was detected.

I(48)Q mutation = biological target: T11, I(48)Q mutation (human, UniProt Q01973); test: flow cytometry, I(48)Q-transduced cells (eGFP), DyLight647
T11 construct: The text speaks of the Ig-like domain; the axis on sheet D00010 reads ROR1 Ig-like+Fz+Kg; also called ROR1 with I(48)Q in the Ig-like domain, on transduced SUP-T1 cells
Experimental: FIG. 5A-FIG. 5H: Epitope mapping of ROR1 clone A MAb. FIG. 5A-FIG. 5B: Reactivity of clone A with ROR1-derived overlapping peptides was analyzed by ELISA. FIG. 5C-FIG. 5H: Amino acid substitution within the epitope binding region was performed in ROR1-transduced cell lines. Also, the previously described clones R12, 4a5 and D10 were also included for comparison. Red circles indicate essential amino acids for antibody binding. One out of three experiments is shown. Experiments were done in triplicates. Error bars represent SD.
as §2

[8] = biological target: T12, ROR1 Ig-like domain with NISSE at residues 47 to 51 replaced by FQDDL, on transduced SUP-T1 cells (human, UniProt Q01973 30-147, limits assumed); test: flow cytometry on SUP-T1 cells transduced with mutated ROR1 Ig-like domain
T12 construct: domain: Ig-like; also called five amino acid substitution
T12 sequence (Q01973 other isoform, or with tags, fused parts or gaps limits assumed): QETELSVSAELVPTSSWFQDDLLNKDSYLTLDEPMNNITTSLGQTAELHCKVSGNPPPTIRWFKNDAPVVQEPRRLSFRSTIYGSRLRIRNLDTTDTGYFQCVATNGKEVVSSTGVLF

T4 sequence (Q01973 312-391 limits assumed): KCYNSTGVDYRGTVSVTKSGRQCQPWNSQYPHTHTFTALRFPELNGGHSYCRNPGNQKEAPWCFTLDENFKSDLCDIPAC
T6 sequence (Q01973 165-391 limits assumed): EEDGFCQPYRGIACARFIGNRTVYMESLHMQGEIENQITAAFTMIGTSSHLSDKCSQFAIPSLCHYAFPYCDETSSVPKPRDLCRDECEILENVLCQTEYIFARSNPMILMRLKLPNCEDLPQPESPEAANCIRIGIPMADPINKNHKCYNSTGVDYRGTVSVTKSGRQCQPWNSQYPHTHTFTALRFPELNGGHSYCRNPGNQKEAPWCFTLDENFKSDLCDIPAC
T3 sequence (Q01973 30-406): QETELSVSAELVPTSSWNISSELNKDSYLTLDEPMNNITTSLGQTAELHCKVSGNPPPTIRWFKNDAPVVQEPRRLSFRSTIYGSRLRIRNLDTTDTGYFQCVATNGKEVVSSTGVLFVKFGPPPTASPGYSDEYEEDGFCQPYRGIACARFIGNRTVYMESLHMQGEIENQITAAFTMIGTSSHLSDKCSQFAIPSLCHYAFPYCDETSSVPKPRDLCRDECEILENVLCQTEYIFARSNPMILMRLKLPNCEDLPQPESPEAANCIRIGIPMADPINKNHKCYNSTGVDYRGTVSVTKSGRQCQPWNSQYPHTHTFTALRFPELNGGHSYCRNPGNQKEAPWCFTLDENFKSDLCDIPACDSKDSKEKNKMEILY
T8 sequence (Q01973 30-406): as above
T1 sequence (Q01973 30-147 limits assumed): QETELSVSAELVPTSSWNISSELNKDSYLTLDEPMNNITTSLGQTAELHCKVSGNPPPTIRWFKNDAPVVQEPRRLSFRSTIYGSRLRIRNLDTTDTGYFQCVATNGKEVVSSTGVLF
T2 sequence (Q01973 165-299): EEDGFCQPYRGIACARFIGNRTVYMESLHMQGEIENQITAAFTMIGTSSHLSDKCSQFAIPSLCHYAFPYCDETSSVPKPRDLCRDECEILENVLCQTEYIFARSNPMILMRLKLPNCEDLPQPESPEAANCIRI
T5 sequence (Q01973 30-299 limits assumed): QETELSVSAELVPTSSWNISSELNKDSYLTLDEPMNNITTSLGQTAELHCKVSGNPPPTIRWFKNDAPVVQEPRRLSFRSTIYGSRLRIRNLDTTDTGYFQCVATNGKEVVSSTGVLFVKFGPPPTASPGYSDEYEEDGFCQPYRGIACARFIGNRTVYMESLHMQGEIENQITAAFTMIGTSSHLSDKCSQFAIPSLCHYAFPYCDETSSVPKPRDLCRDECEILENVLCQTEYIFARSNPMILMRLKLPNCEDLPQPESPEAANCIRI
T7 sequence (Q01973 165-299 I254V/Q261H): as the sequence (Q01973 165-299) above, with I90V, Q97H counted along it
T11 sequence (Q01973 other isoform, or with tags, fused parts or gaps limits assumed): as the sequence (Q01973 30-406) above, with I19Q counted along it
Chain of Q(261)H mutation (Q01973 165-299 Q261H limits assumed): as the sequence (Q01973 165-299) above, with Q97H counted along it
T9 sequence (Q01973 30-937 limits assumed): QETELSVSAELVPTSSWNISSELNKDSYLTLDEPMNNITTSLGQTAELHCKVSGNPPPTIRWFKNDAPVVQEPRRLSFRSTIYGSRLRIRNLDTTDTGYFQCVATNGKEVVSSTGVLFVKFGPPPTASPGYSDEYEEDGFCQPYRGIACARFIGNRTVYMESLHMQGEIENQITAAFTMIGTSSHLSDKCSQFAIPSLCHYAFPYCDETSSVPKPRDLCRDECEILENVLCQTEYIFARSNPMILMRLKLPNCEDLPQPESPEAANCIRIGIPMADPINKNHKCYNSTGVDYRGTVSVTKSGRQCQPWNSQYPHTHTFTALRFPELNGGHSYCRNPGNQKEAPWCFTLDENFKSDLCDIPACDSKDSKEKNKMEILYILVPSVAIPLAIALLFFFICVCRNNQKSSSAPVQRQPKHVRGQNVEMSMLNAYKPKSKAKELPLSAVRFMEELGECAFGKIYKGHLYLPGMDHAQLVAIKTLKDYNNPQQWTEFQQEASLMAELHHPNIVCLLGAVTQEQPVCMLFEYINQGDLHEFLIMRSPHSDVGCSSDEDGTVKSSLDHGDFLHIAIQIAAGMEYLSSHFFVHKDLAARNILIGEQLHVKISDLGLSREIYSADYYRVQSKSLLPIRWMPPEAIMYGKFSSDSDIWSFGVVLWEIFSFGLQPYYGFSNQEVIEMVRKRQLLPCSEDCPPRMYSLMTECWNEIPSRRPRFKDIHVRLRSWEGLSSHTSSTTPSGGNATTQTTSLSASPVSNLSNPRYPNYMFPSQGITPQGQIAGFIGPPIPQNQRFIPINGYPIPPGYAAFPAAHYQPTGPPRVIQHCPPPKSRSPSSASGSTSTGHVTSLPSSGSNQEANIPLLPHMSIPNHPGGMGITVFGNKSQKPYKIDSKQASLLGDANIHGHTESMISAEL
T10 sequence (Q01973 30-937 limits assumed): as above

Binder | binding result [1] | binding result [2] | binding result [3] | binding result (Kringle (Kg)) | binding result [4] | binding result (Fz+Kg) | binding result [5] | binding result (Q(261)H mutation) | Q1 quadrant figure [6] | Kd [7] [nM] | koff [7] [s⁻¹] | kon [7] [M⁻¹ s⁻¹] | binding result (SKW 6.4 GFP) | binding result (CLL2 ROR1high) | binding result (I(48)Q mutation) | binding result [8]
B1 | binds | no binding | binds | no binding | binds | no binding | – | – | – | – | – | – | – | – | – | –
B2 | no binding | – | – | no binding | – | – | no binding | no binding | 85 | 5.46 | 0.000836 | 153000 | – | – | – | –
B3 | no binding | no binding | binds | no binding | binds | no binding | – | – | – | – | – | – | binds | binds | – | –
B4 | – | no binding | – | no binding | – | no binding | – | – | – | 1.81 | 0.00104 | 577000 | – | – | no binding | no binding
